We go through three molecules from publication PMC5031503.

This assay has as its target Myc-tagged Scar/WAVE complex (Myc-Pir121, Myc-Nap1, Myc-Abi1d, Myc-WAVE2), Q96F07;Q9Y2A7;Q9Y6W5. Put plainly: co-immunoprecipitation, quantified western blot band intensities. The settings on record: chain shown with the change; HEK293FT cells; n=4; Scar/WAVE2 normalized against the immunoprecipitated Lpd; parent: est. 100; read off a plot.

Substitutions are numbered along the chain they refer to. Numbers in names are those of the source.

Chain of Myc-tagged Scar/WAVE complex (Myc-Pir121, Myc-Nap1, Myc-Abi1d, Myc-WAVE2), Q96F07;Q9Y2A7;Q9Y6W5 (chain, as listed by the source, chain 1 of 3): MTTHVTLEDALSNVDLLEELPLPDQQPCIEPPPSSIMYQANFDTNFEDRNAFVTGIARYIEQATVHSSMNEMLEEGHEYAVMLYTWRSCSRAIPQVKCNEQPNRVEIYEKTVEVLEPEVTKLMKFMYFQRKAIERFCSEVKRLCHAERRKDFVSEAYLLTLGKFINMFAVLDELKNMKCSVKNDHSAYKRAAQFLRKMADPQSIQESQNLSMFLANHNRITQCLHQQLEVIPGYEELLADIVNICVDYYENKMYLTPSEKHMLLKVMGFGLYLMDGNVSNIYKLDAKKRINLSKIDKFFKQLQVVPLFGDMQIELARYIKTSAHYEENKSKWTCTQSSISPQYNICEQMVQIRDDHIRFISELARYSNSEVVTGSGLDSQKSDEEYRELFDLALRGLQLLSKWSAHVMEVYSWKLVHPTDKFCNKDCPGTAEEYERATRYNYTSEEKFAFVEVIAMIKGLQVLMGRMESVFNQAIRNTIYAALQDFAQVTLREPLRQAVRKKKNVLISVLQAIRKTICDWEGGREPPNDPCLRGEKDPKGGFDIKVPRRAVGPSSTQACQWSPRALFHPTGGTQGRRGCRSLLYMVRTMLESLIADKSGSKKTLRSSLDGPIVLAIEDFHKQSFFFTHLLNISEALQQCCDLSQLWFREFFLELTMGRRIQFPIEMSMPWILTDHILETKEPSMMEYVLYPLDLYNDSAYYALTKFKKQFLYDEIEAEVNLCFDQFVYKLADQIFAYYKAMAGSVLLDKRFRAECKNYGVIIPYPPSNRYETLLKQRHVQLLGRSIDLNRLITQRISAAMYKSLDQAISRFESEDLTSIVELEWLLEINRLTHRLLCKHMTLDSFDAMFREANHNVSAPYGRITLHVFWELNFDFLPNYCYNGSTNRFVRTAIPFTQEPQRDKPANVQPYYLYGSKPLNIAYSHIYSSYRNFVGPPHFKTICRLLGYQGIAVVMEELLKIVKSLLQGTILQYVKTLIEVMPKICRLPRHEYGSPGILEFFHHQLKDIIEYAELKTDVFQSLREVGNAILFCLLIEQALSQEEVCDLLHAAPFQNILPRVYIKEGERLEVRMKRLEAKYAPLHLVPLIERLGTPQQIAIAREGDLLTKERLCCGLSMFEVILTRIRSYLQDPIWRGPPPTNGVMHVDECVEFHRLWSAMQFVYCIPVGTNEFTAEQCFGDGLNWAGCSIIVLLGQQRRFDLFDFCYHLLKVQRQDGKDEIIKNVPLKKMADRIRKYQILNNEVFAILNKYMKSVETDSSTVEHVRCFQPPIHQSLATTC
Chain of Myc-tagged Scar/WAVE complex (Myc-Pir121, Myc-Nap1, Myc-Abi1d, Myc-WAVE2), Q96F07;Q9Y2A7;Q9Y6W5 (chain, as listed by the source, chain 2 of 3): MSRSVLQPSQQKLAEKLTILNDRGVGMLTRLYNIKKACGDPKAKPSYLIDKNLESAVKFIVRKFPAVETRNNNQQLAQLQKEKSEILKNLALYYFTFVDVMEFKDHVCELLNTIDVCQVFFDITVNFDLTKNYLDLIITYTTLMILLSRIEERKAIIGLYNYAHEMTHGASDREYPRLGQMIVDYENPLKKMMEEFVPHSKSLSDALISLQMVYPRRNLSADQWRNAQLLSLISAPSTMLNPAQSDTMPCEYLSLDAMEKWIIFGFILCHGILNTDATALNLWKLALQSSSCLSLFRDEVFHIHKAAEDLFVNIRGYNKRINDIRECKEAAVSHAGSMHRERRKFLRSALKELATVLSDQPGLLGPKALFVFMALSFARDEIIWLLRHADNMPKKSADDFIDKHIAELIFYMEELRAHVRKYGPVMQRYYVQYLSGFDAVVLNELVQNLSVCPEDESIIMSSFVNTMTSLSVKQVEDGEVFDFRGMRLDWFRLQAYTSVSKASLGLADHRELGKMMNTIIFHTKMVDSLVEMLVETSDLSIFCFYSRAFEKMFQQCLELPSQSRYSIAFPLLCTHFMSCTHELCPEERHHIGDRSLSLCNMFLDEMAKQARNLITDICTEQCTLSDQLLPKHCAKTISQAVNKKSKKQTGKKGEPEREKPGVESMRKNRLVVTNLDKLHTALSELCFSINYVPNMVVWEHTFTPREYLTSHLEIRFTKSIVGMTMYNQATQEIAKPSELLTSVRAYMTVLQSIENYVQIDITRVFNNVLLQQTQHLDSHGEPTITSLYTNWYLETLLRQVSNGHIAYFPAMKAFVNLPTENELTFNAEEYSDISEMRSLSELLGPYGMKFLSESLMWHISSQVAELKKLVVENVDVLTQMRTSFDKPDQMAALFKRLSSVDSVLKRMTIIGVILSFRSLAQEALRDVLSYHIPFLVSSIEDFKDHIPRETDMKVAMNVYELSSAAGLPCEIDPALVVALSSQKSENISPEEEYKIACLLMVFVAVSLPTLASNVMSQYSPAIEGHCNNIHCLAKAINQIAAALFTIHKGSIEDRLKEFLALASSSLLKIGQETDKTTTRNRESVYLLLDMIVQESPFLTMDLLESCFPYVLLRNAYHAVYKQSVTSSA
Chain of Myc-tagged Scar/WAVE complex (Myc-Pir121, Myc-Nap1, Myc-Abi1d, Myc-WAVE2), Q96F07;Q9Y2A7;Q9Y6W5 (chain, as listed by the source, chain 3 of 3): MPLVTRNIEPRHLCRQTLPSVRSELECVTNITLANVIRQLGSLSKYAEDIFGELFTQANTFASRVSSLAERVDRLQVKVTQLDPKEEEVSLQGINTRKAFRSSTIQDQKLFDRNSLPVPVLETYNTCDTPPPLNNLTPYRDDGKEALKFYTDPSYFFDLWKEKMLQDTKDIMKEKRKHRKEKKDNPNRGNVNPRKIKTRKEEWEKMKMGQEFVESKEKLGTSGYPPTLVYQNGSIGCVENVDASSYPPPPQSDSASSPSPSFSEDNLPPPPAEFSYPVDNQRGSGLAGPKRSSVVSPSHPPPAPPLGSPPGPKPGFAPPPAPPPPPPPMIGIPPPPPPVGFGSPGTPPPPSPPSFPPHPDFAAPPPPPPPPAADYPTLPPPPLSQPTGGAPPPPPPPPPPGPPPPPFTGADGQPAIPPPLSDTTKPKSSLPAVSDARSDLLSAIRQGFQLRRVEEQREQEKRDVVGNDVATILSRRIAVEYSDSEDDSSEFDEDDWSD

B1: GFP-Lpd (Lamellipodin, wild type), Q70E73 Y366F; Y426F; Y456F; Y466F; Y481F; Y510F (protein)
chain: MEQLSDEEIDHGAEEDSDKEDQDLDKMFGAWLGELDKLTQSLDSDKPMEPVKRSPLRQETNMANFSYRFSIYNLNEALNQGETVDLDALMADLCSIEQELSSIGSGNSKRQITETKATQKLPVSRHTLKHGTLKGLSSSSNRIAKPSHASYSLDDVTAQLEQASLSMDEAAQQSVLEDTKPLVTNQHRRTASAGTVSDAEVHSISNSSHSSITSAASSMDSLDIDKVTRPQELDLTHQGQPITEEEQAAKLKAEKIRVALEKIKEAQVKKLVIRVHMSDDSSKTMMVDERQTVRQVLDNLMDKSHCGYSLDWSLVETVSELQMERIFEDHENLVENLLNWTRDSQNKLIFMERIEKYALFKNPQNFLLGKKETAEMADRNKEVLLEECFCGSSVTVPEIEGVLWLKDDGKKSWKKRYFLLRASGIFYVPKGKAKVSRDLVCFLQLDHVNVYYGQDFRNKYKAPTDFCLVLKHPQIQKKSQFIKYLCCDDVRTLHQWVNGIRIAKYGKQLFMNYQEALKRTESAYDWTSLSSSSIKSGSSSSSIPESQSNHSNQSDSGVSDTQPAGHVRSQSIVSSVFSEAWKRGTQLEESSKARMESMNRPYTSLVPPLSPQPKIVTPYTASQPSPPLPPPPPPPPPPPPPPPPPPPPLPSQSAPSAGSAAPMFVKYSTITRLQNASQHSGALFKPPTPPVMQSQSVKPQILVPPNGVVPPPPPPPPPPTPGSAMAQLKPAPCAPSLPQFSAPPPPLKIHQVQHITQVAPPTPPPPPPIPAPLPPQAPPKPLVTIPAPTSTKTVAPVVTQAAPPTPTPPVPPAKKQPAFPASYIPPSPPTPPVPVPPPTLPKQQSFCAKPPPSPLSPVPSVVKQIASQFPPPPTPPAMESQPLKPVPANVAPQSPPAVKAKPKWQPSSIPVPSPDFPPPPPESSLVFPPPPPSPVPAPPPPPPPTASPTPDKSGSPGKKTSKTSSPGGKKPPPTPQRNSSIKSSSGAEHPEPKRPSVDSLVSKFTPPAESGSPSKETLPPPAAPPKPGKLNLSGVNLPGVLQQGCVSAKAPVLSGRGKDSVVEFPSPPSDSDFPPPPPETELPLPPIEIPAVFSGNTSPKVAVVNPQPQQWSKMSVKKAPPPTRPKRNDSTRLTQAEISEQPTMATVVPQVPTSPKSSLSVQPGFLADLNRTLQRKSITRHGSLSSRMSRAEPTATMDDMALPPPPPELLSDQQKAGYGGSHISGYATLRRGPPPAPPKRDQNTKLSRDW
For B1, the percent of parent (% co-IP Lpd-WAVE2) was determined as 39.

B2: GFP-Lpd (Lamellipodin, wild type), Q70E73 Y366F; Y426F; Y456F; Y466F; Y481F; Y510F; Y513F; Y1226F (protein)
chain: B1 chain with Y513F, Y1226F
Turning to B2, the percent of parent (% co-IP Lpd-WAVE2) came out at 31.

B3: GFP-Lpd (Lamellipodin, wild type), Q70E73 Y426F; Y456F; Y513F; Y1226F (protein)
chain: B1 chain with F366Y, F466Y, F481Y, F510Y, Y513F, Y1226F
As to B3, the percent of parent (% co-IP Lpd-WAVE2) came out at 41.
